Measured values from publication PMC6297230, “Structural basis of meiotic telomere attachment to the nuclear envelope by MAJIN-TERB2-TERB1” (Nature Communications, 2018).
Values joined by “and” are separate entries in the source; they are usually repeats but may differ in a detail not shown here. Equal values may be shown once.

B1: TERB1 TRF1-binding domain (amino acids 561–658) (domain or fragment, human, UniProt Q8NA31 561-658, looked up)
chain: TDPFTLCSDIINKEVVSFLATPSCSEMLTYRCSGCIAVEKSLNSRNFSKLLHSCPYQCDRHKVIVEAEDRYKSELRKSLICNKKILLTPRRRQRLSNE
notes: human TERB1, canonical isoform Q8NA31, amino acids 561-658; The discussion prints 568–658 once for TRFB; also called TERB1_(TRFB); TRFB; source: E. coli BL21 (DE3), co-expressed with TRF1 TRFH and/or TERB2, purified (Ni-NTA, amylose, ion exchange, SEC)
B5: TERB2 N-terminal end (amino acids 1–107) (domain or fragment, human, UniProt Q8NHR7 1-107, looked up)
chain: MFQGQRGWFCGSVSQDLRQFWVAEGGTISDPRAADFLFSCDASHPDTLRIYQSLDYIEDNATVFHAYYLSAVANAKIKNSVALGHFILPPACLQKEIRRKIGSFIWE
notes: Forms large aggregates in isolation; source: E. coli BL21 (DE3), co-expressed with TERB1, purified (Ni-NTA, amylose, ion exchange, SEC)
B8: TRF homology domain of TRF1 (amino acids 62–268) (domain or fragment, human, UniProt P54274 62-268, looked up)
chain: EDAGLVAEAEAVAAGWMLDFLCLSLCRAFRDGRSEDFRRTRNSAEAIIHGLSSLTACQLRTIYICQFLTRIAAGKTLDAQFENDERITPLESALMIWGSIEKEHDKLHEEIQNLIKIQAIAVCMENGNFKEAEEVFERIFGDPNSHMPFKSKLLMIISQKDTFHSFFQHFSYNHMMEKIKSYVNYVLSEKSSTFLMKAAAKVVESKR
notes: Dimer by SEC-MALS; also called TRF1_(TRFH); source: E. coli BL21 (DE3), purified (Ni-NTA, amylose, ion exchange, SEC; 10% glycerol, room temperature)

Key:
[1] = molecular target: MAJIN core, truncated (amino acids 1–106) (human); experiment: SEC-MALS; purified (co-expressed) samples at > 1 mg/ml on Superdex 200 Increase 10/300 GL in 20 mM Tris pH 8.0, 250 mM KCl, 2 mM DTT
[2] = molecular target: TRF homology domain of TRF1 (amino acids 62–268) (human) (UniProt P54274); experiment: SEC-MALS; relative binding affinities estimated from dissociation of TRF1 TRFH–TERB1 complexes upon serial dilution (Supplementary Fig. 13a–d)
TERB1 TBM (Homo sapiens) = TERB1 TBM (Homo sapiens) (UniProt Q8NA31); conditions: cited from earlier work
[3] = molecular target: GST-TERB1 TBM (Homo sapiens) (UniProt Q8NA31); conditions: cited from earlier work
[4] = molecular target: MAJIN N-terminal structural core (amino acids 1–112) (human); experiment: SEC-MALS; purified (co-expressed) samples at > 1 mg/ml on Superdex 200 Increase 10/300 GL in 20 mM Tris pH 8.0, 250 mM KCl, 2 mM DTT
[5] = molecular target: B8; experiment: as above; conditions: both partners purified
His6–TRF1_(TRFH) = molecular target: T1, His6–TRF1_(TRFH) (human, UniProt P54274 62-268); experiment: SEC-MALS; co-purified His6–TRF1 TRFH complexes with MBP–TERB1 TRFB (9 µM) or MBP–TERB1 TBM (130 µM) incubated with 9 µM phosphorylated CDK1-CyclinB in 40 mM Tris pH 7.5, 250 mM KCl, 20 mM MgCl2, 2 mM ATP, 10 mM DTT, 10 min at 30 °C and 50 min at 22 °C; also SDS–PAGE with ProQ-Diamond; conditions: both partners purified
T1 construct: source: E. coli BL21 (DE3), co-purified with MBP–TERB1 fusions
T1 sequence (looked up): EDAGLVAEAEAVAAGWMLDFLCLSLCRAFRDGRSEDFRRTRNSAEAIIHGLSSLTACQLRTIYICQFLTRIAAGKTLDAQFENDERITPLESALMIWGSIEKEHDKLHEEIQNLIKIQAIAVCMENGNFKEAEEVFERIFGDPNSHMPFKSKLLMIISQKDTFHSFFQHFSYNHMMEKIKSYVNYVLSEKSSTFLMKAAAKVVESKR

[6] = molecular target: B8; experiment: SEC-MALS; relative binding affinities estimated from dissociation of TRF1 TRFH–TERB1 complexes upon serial dilution (Supplementary Fig. 13a–d); conditions: both partners purified
[7] = molecular target: MAJIN N-terminal structural core (amino acids 1–112) (human); experiment: SEC-MALS; purified (co-expressed) samples at > 1 mg/ml on Superdex 200 Increase 10/300 GL in 20 mM Tris pH 8.0, 250 mM KCl, 2 mM DTT; remark: listed apart in the source
Target sequence in this assay (Q3KP22 1-112): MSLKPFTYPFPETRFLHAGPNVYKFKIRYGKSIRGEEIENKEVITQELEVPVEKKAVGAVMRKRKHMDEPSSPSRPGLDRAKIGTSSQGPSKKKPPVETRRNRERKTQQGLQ

[8] = molecular target: MAJIN core (amino acids 1–112) K24M K26E R28E K31D R34E R81D (human); experiment: as above
[9] = molecular target: MAJIN core (amino acids 1–112) F73E Y75E (human); experiment: as above
[10] = molecular target: B1; experiment: as above; conditions: both partners purified
[11] = molecular target: B5; experiment: as above; conditions: both partners purified
[12] = molecular target: T2, full length TERB2 (1–220) (human, UniProt Q8NHR7 1-220); experiment: as above; conditions: both partners purified
T2 construct: human TERB2, canonical isoform Q8NHR7, full length, amino acids 1-220; source: E. coli BL21 (DE3), co-expressed with MAJIN and TERB1, purified (Ni-NTA, amylose, ion exchange, SEC)
T2 sequence (looked up): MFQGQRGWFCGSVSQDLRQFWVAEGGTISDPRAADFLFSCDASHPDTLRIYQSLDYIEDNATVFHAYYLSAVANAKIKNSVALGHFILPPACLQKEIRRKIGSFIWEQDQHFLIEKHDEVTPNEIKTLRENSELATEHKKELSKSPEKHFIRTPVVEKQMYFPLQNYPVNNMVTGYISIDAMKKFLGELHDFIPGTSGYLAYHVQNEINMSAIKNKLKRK

TRF1 full length = TRF1 full length (human, UniProt P54274 1-439); experiment: EMSA; apparent, Hill fit; EMSA: 20 mM Tris pH 8.0, 250 mM KCl, 1 h at 4 °C, 3% glycerol, 0.5% agarose in 0.5x TBE; 25 nM FAM-DNA for Kd (protein as oligomer), 0.3 uM DNA for display; conditions: protein: recombinant; tags: tag removed (TEV); chain copies: 2; label: 5' 6-FAM; blunt
[13] = molecular target: MAJIN_(Core+BP1)-TERB2–TERB1_(TRFB) complex (1–147, 1–220, 561–658) (human) (UniProt Q8NHR7); experiment: SEC-MALS; complex reconstituted by adding TRF1 TRFH to purified MAJIN–TERB2–TERB1(TRFB) (Supplementary Fig. 12c); conditions: scale: TRF1 TRFH chains per 2:2:2 MAJIN–TERB2–TERB1 complex
[14] = molecular target: the molecule itself; experiment: SEC-MALS; purified (co-expressed) samples at > 1 mg/ml on Superdex 200 Increase 10/300 GL in 20 mM Tris pH 8.0, 250 mM KCl, 2 mM DTT
[15] = molecular target: MAJIN core, truncated (amino acids 1–106) (human); experiment: as above; remark: listed apart in the source

TRF1 full length, sequence (P54274 whole entry): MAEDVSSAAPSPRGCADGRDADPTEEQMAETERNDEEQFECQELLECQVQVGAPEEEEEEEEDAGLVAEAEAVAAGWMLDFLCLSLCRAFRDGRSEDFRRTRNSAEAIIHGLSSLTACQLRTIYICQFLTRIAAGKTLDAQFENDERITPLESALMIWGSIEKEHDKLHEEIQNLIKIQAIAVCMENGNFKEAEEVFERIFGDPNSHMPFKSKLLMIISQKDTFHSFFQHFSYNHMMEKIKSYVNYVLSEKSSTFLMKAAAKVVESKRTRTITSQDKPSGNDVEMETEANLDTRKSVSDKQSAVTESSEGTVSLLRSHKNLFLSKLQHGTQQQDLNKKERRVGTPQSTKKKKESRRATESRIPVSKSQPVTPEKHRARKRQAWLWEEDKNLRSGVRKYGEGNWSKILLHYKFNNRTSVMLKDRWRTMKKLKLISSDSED

## MAJIN core, truncated (amino acids 1–106) (domain or fragment)
[1]
  stoichiometry N (MAJIN chains in the 2:2 complex): 2

## TERB1TBM (amino acids 642–658) (from UniProt Q8NA31 642-658) (peptide)
[2]
  fold weaker binding than TERB1 TRFB: > 100 fold

## TRF1 TRFH (from UniProt P54274)
TERB1 TBM (Homo sapiens)
  Kd: 5.6 µM
[3]
  Kd: 75 nM

## MAJIN N-terminal structural core (amino acids 1–112) (domain or fragment)
[4]
  stoichiometry N (MAJIN chains in the 2:2:2 complex): 2
  stoichiometry N (MAJIN chains in the 2:2 complex): 2

## B1
[5]
  stoichiometry N: 0.5 binder chains per target chain (2:1 TRF1:TERB1) and 0.5 binder chains per target chain (2:1:1 TRF1:TERB1:TERB2)

B2: MBP–TERB1_(TRFB) partially phosphorylated by CDK1-CyclinB (domain or fragment, human, UniProt Q8NA31 561-658, looked up)
chain: TDPFTLCSDIINKEVVSFLATPSCSEMLTYRCSGCIAVEKSLNSRNFSKLLHSCPYQCDRHKVIVEAEDRYKSELRKSLICNKKILLTPRRRQRLSNE
modifications: only partially phosphorylated by CDK1-CyclinB (residue not named for this experiment)
notes: human TERB1, canonical isoform Q8NA31, amino acids 561-658; source: E. coli BL21 (DE3), co-purified with His6–TRF1 TRFH, then incubated with phosphorylated CDK1-CyclinB and ATP
His6–TRF1_(TRFH)
  stoichiometry N: 0.5 binder chains per target chain (2:1 TRF1:TERB1)

B3: TERB1 TRF1-binding domain (amino acids 561–658) T648E (domain or fragment, human, UniProt Q8NA31 561-658, looked up)
chain: TDPFTLCSDIINKEVVSFLATPSCSEMLTYRCSGCIAVEKSLNSRNFSKLLHSCPYQCDRHKVIVEAEDRYKSELRKSLICNKKILLEPRRRQRLSNE
notes: human TERB1, canonical isoform Q8NA31, amino acids 561-658, phosphomimetic T648E; it may be an MBP fusion as in the phosphorylation assays; also called TERB1_(TRFB) T648E; source: E. coli BL21 (DE3), purified
[6]
  fold higher affinity than wild-type TERB1 TBM: ≥ 10 fold

B4: TERB2 C-terminus (amino acids 168–220) (domain or fragment)
chain: PVNNMVTGYISIDAMKKFLGELHDFIPGTSGYLAYHVQNEINMSAIKNKLKRK
[7]
  stoichiometry N (binder chains per target chain (2:2)): 1
[8]
  stoichiometry N (binder chains per target chain (1:1)): 1
[9]
  stoichiometry N (binder chains per target chain (1:1)): 1

## B5
[10]
  stoichiometry N: 1 binder chains per target chain (2:1:1 TRF1:TERB1:TERB2)

B6: TERB1 TERB2-binding site (amino acids 585–642) (domain or fragment, human, UniProt Q8NA31 585-642, looked up)
chain: SEMLTYRCSGCIAVEKSLNSRNFSKLLHSCPYQCDRHKVIVEAEDRYKSELRKSLICN
notes: human TERB1, canonical isoform Q8NA31, amino acids 585-642; Forms large aggregates in isolation; also called TERB1T2B; T2B; source: E. coli BL21 (DE3), co-expressed with TERB2, purified (Ni-NTA, amylose, ion exchange, SEC)
[11]
  stoichiometry N: 1 binder chains per target chain (1:1)
[12]
  stoichiometry N: 1 binder chains per target chain (2:2:2)

B7: FAM random dsDNA (145 bp) (dsDNA)
DNA 1: TTCCAGGGTTCCATGGAGATAAAGGTCAATAAATTAGAGTTAGAACTAGAAAGTGCCAAACAGAAATTTGGAGAAATCACAGACACCTATCAGAAAGAAATTGAGGACAAAAAGATATCAGAATAATAACCATGGATATCGAATT
DNA 2: AATTCGATATCCATGGTTATTATTCTGATATCTTTTTGTCCTCAATTTCTTTCTGATAGGTGTCTGTGATTTCTCCAAATTTCTGTTTGGCACTTTCTAGTTCTAACTCTAATTTATTGACCTTTATCTCCATGGAACCCTGGAA
TRF1 full length
  Kd: 100 nM

## B8
[13]
  stoichiometry N: 4
[14]
  stoichiometry N: 2 chains in the oligomer

B9: full length TERB2 (1–220) (natural protein)
chain: MFQGQRGWFCGSVSQDLRQFWVAEGGTISDPRAADFLFSCDASHPDTLRIYQSLDYIEDNATVFHAYYLSAVANAKIKNSVALGHFILPPACLQKEIRRKIGSFIWEQDQHFLIEKHDEVTPNEIKTLRENSELATEHKKELSKSPEKHFIRTPVVEKQMYFPLQNYPVNNMVTGYISIDAMKKFLGELHDFIPGTSGYLAYHVQNEINMSAIKNKLKRK
[7]
  stoichiometry N (binder chains per target chain (2:2:2)): 1

## PVNNMVTGYISIDAMKKFLGELHDFIPGTSGYLAYHVQNE (domain or fragment) [TERB2 C-terminus, truncated (amino acids 168–207)]
[15]
  stoichiometry N (binder chains per target chain (2:2)): 1
